# Laboratory results taken from article PMC5678893.
# B1: CheW (natural protein)
# chain: MTGMTNVTKLASEPSGQEFLVFTLGDEEYGIDILKVQEIRGYDQVTRIANTPAFIKGVTNLRGVIVPIVDLRIKFSQVDVDYNDNTVVIVLNLGQRVVGIVVDGVSDVLSLTAEQIRPAPEFAVTLSTEYLTGLGALGDRMLILVNIEKLLNSEEMALLDSAASEVA
# B2: CheA (enzyme)
# chain: MSMDISDFYQTFFDEADELLADMEQHLLVLQPEAPDAEQLNAIFRAAHSIKGGAGTFGFSVLQETTHLMENLLDEARRGEMQLNTDIINLFLETKDIMQEQLDAYKQSQEPDAASFDYICQALRQLALEAKGETPSAVTRLSVVAKSEPQDEQSRSQSPRRIILSRLKAGEVDLLEEELGHLTTLTDVVKGADSLSAILPGDIAEDDITAVLCFVIEADQITFETVEVSPKISTPPVLKLAAEQAPTGRVEREKTTRSNESTSIRVAVEKVDQLINLVGELVITQSMLAQRSSELDPVNHGDLITSMGQLQRNARDLQESVMSIRMMPMEYVFSRYPRLVRDLAGKLGKQVELTLVGSSTELDKSLIERIIDPLTHLVRNSLDHGIELPEKRLAAGKNSVGNLILSAEHQGGNICIEVTDDGAGLNRERILAKAASQGLTVSENMSDDEVAMLIFAPGFSTAEQVTDVSGRGVGMDVVKRNIQKMGGHVEIQSKQGTGTTIRILLPLTLAILDGMSVRVADEVFILPLNAVMESLQPREADLHPLAGGERVLEVRGEYLPIVELWKVFNVAGAKTEATQGIVVILQSGGRRYALLVDQLIGQHQVVVKNLESNYRKVPGISAATILGDGSVALIVDVSALQAINREQRMANTAA
# Legend:
# [1] = target: His-tagged cytoplasmic fragment (CF) of the E. coli aspartate chemoreceptor, 4Q (E. coli); test: co-sedimentation
# [2] = target: all active complexes of the different constructs assembled with vesicles, PEG, or Ni(II); test: co-sedimentation
Binder,percent bound [1],sedimentation relative to the optimal NiCl2 sample [1],"sedimented (bound) concentration, maximum at 4 h [1]",stoichiometry N (CheW per 6 CF) [2]
B1,< 15%,50%,13.6 µM,2.1 to 3
B2,< 15%,50%,5.8 µM,
